B1: RTP4 (parent)
chain: TYWEHWTSQGQVRMRLFGQRCQKC
B2: KCNK9 (parent)
chain: CFITLTTIGFGDYVALQTKGALQK

Variants of: B1
Test: protein stability index of a GFP-peptide fusion (GPS, HEK-293T) (PSI 1-6); higher = more stable
Conditions: c terminus: a fixed tail appended
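Further: lentivirally expressed fusions sorted by FACS into six bins by GFP to DsRed ratio, PSI derived from sequencing read proportions per bin multiplied by bin number.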

Row | Variant | protein stability index
1 | R20M | 2.69
2 | R20Y | 1.97
3 | R20D | 2.47
4 | R20L | 1.75
5 | R20Q | 1.24
6 | R20F | 1.82
7 | R20N | 1.34
8 | R20T | 2.22
9 | R20S | 1.65
10 | R20I | 1.03
11 | R20G | 1.93
12 | R20P | 1.78
13 | R20E | 1.57
14 | R20W | 2.49
15 | R20K | 1.86
16 | R20C | 2.72
17 | R20H | 1.63
18 | Q22L | 2.36
19 | Q22W | 4.47
20 | Q22H | 1.69
21 | Q22R | 1.92
22 | Q22T | 1.94
23 | Q22N | 1.71
24 | Q22P | 1.68
25 | Q22S | 1.33

Row | Variant | protein stability index
26 | Q22K | 1.61
27 | Q22E | 1.09
28 | Q22A | 2.06
29 | Q22I | 1.52
30 | Q22V | 1.36
31 | G18I | 2.39
32 | G18R | 2.02
33 | G18D | 2.04
34 | G18A | 1.96
35 | G18C | 2.03
36 | G18W | 1.74
37 | G18Q | 1.4
38 | G18M | 1.36
39 | G18E | 2.24
40 | G18S | 1.46
41 | G18K | 1.86
42 | G18N | 2.14
43 | G18P | 1.81
44 | G18Y | 2.41
45 | G18F | 1.87
46 | G18H | 2.23
47 | G18T | 1.91
48 | C21I | 1.98
49 | C21A | 1.94
50 | C21Q | 2.12

Row | Variant | protein stability index
51 | C21M | 1.7
52 | C21F | 1.39
53 | C21R | 2.4
54 | C21D | 2.75
55 | C21L | 2.4
56 | C21Y | 1.81
57 | C21G | 2.46
58 | C21K | 2.45
59 | C21N | 2.15
60 | C21T | 1.78
61 | C21E | 2.46
62 | C21P | 3.25
63 | C21H | 2.23
64 | R15V | 1.64
65 | R15T | 1.7
66 | R15S | 1.21
67 | R15Q | 1.86
68 | R15P | 1.87
69 | L16R | 1.91
70 | L16C | 2.99
71 | L16Q | 1.79
72 | L16S | 1.75
73 | L16Y | 2.61
74 | L16H | 2.34
75 | L16A | 1.6

Row | Variant | protein stability index
76 | L16I | 1.62
77 | L16F | 2.22
78 | L16N | 2.43
79 | L16K | 1.25
80 | L16W | 1.62
81 | L16P | 2.13
82 | L16V | 1.81
83 | L16D | 2.85
84 | L16G | 2.13
85 | L16T | 1.14
86 | C24H | 2.07
87 | C24D | 2.53
88 | C24W | 1.54
89 | C24K | 3.24
90 | C24L | 2.2
91 | C24V | 2.03
92 | C24N | 2.22
93 | C24Q | 2.28
94 | C24M | 2.29
95 | C24G | 2.2
96 | C24F | 2.78
97 | C24T | 2.41
98 | C24P | 1.69
99 | C24E | 2.34
100 | C24Y | 2.15

Row | Variant | protein stability index
101 | C24R | 2.29
102 | C24A | 2.31
103 | K23A | 2.52
104 | K23P | 1.65
105 | K23D | 1.79
106 | K23Y | 1.67
107 | K23T | 1.07
108 | K23R | 1.4
109 | K23C | 1.63
110 | K23G | 1.15
111 | K23S | 1.48
112 | K23H | 1.1
113 | K23Q | 1.92
114 | K23E | 1.79
115 | Q19F | 1.66
116 | Q19Y | 1.03
117 | Q19K | 1.8
118 | Q19G | 1.45
119 | Q19P | 1.25
120 | Q19A | 1.98
121 | Q19R | 1.46
122 | Q19D | 1.97
123 | Q19C | 2.9
124 | Q19L | 1.04
125 | Q19W | 2.6

Row | Variant | protein stability index
126 | Q19N | 1.58
127 | Q19T | 1.05
128 | Q19S | 1.61
129 | Q19I | 2.31
130 | Q19E | 1.62
131 | Q19V | 2.23
132 | Q19H | 2.6
133 | F17N | 2.9
134 | F17Q | 2.26
135 | F17G | 2.31
136 | F17E | 2.29
137 | F17M | 2.37
138 | F17K | 1.92
139 | F17D | 2.01
140 | F17P | 2.38
141 | F17T | 2.02
142 | F17A | 1.87
143 | F17W | 2.44
144 | F17S | 2.27
145 | F17Y | 1.55
146 | F17H | 2.79
147 | F17L | 1.85
148 | F17C | 2.57
149 | F17I | 1.67

Variants of: B2
Test: as above
Conditions: c terminus: a fixed tail appended

Row | Variant | protein stability index
150 | T7A | 4.42
151 | T7L | 3.38
152 | T7E | 2.94
153 | T7H | 2.63
154 | T7Q | 2.52
155 | T7I | 3.49
156 | T7R | 2.44
157 | T7N | 1.78
158 | T7W | 4.77
159 | T7M | 2.54
160 | T7S | 2.53
161 | T7V | 2.77
162 | T7K | 1.73
163 | T7P | 2.32
164 | T7F | 3.36
165 | T7D | 2.15
166 | T7Y | 2.13
167 | I8G | 2.78
168 | I8H | 3.24
169 | I8E | 2.39
170 | I8N | 2.27
171 | I8Q | 3.37
172 | I8A | 2.08
173 | I8M | 2.03

Row | Variant | protein stability index
174 | I8D | 2.14
175 | I8V | 3.42
176 | I8P | 2.39
177 | I8L | 3.63
178 | I8Y | 1.78
179 | I8F | 2.8
180 | I8S | 2.95
181 | I8R | 1.67
182 | I8C | 2.37
183 | I8K | 1.53
184 | I8T | 3.29
185 | G11K | 2.73
186 | G11E | 3.16
187 | G11I | 2.91
188 | G11A | 3.32
189 | G11C | 3.41
190 | G11D | 3.33
191 | G11H | 3.08
192 | G11F | 3.25
193 | L5C | 3.26
194 | L5Q | 2.07
195 | L5F | 3.73
196 | L5P | 2.17
197 | L5Y | 3.03

Row | Variant | protein stability index
198 | L5M | 2.65
199 | L5E | 2.38
200 | L5K | 1.59
201 | L5V | 2.34
202 | L5G | 2.48
203 | L5H | 1.77
204 | L5N | 2.12
205 | L5A | 1.85
206 | L5D | 2.42
207 | L5I | 3.75
208 | L5S | 1.6
209 | L5W | 2.72
210 | L5T | 1.57
211 | L5R | 2.24
212 | C1Q | 2.53
213 | C1I | 3.52
214 | C1A | 2.27
215 | C1E | 2.02
216 | C1W | 3.09
217 | C1S | 2.4
218 | C1H | 3.02
219 | C1M | 3.33
220 | C1P | 1.66
221 | C1T | 3.37

Row | Variant | protein stability index
222 | C1L | 4.01
223 | C1K | 2.05
224 | C1G | 1.26
225 | C1D | 1.57
226 | C1R | 2.57
227 | C1N | 2.2
228 | G9R | 1.36
229 | G9E | 1.58
230 | G9W | 2.9
231 | G9H | 2.51
232 | G9C | 2.83
233 | G9Y | 1.93
234 | G9M | 2.8
235 | G9A | 3.95
236 | G9V | 4.79
237 | G9S | 1.73
238 | G9D | 2.33
239 | G9P | 1.99
240 | G9Q | 2.81
241 | G9T | 2.21
242 | G9F | 3.77
243 | G9N | 2.02
244 | G9L | 3.46
245 | G9I | 2.7

Row | Variant | protein stability index
246 | G9K | 2.5
247 | T6Q | 1.51
248 | T6H | 1.44
249 | T6C | 3.41
250 | T6P | 1.21
251 | T6L | 3.01
252 | T6V | 3.1
253 | T6S | 3.54
254 | T6I | 2.13
255 | T6F | 2.57
256 | T6N | 2.89
257 | T6Y | 2.71
258 | T6R | 2.85
259 | T6M | 4.77
260 | T6D | 2.36
261 | T6E | 1.83
262 | T6K | 2.11
263 | T6G | 1.69
264 | I3P | 2.68
265 | I3T | 1.87
266 | I3G | 1.68
267 | I3F | 1.52
268 | I3Q | 2.13
269 | I3K | 2.06

Row | Variant | protein stability index
270 | I3L | 2.05
271 | I3C | 2.68
272 | I3M | 2.05
273 | I3A | 2.03
274 | I3S | 2.11
275 | I3R | 1.78
276 | I3E | 2.03
277 | I3W | 2.2
278 | I3Y | 2.82
279 | I3D | 2.82
280 | I3N | 1.86
281 | I3H | 1.82
282 | F10M | 2.62
283 | F10K | 1.85
284 | F10C | 2.79
285 | F10Q | 1.56
286 | F10S | 1.39
287 | F10E | 2.46
288 | F10W | 2.33
289 | F10T | 2.59
290 | F10Y | 2.12
291 | F10R | 1.7
292 | F10D | 2.17
293 | F10G | 2.16

Row | Variant | protein stability index
294 | F10H | 2.73
295 | F10L | 2.73
296 | F10V | 2.06
297 | F10N | 1.58
298 | F10A | 2.05
299 | F10P | 2.78
300 | F2G | 2.02
301 | F2S | 2.72
302 | F2H | 2.03
303 | F2I | 2.62
304 | F2P | 2.5
305 | F2K | 2.4
306 | F2M | 1.43
307 | F2C | 2.23
308 | F2N | 1.61
309 | F2R | 2.18
310 | F2V | 2.51
311 | F2L | 3.17
312 | F2T | 2.04
313 | F2Q | 1.82
314 | F2D | 1.99
315 | F2A | 1.82
316 | F2Y | 1.79
317 | F2E | 1.02

Row | Variant | protein stability index
318 | T4Q | 1.99
319 | T4V | 2.25
320 | T4H | 2.23
321 | T4C | 3.91
322 | T4G | 2.63
323 | T4R | 2.99
324 | T4N | 3.41
325 | T4M | 3.53
326 | T4E | 2.07
327 | T4F | 2.95
328 | T4A | 2.99
329 | T4W | 2.91
330 | T4P | 2.13
331 | T4S | 3.03
332 | T4D | 2.54
333 | T4I | 1.52
334 | T4K | 3.64

From the supplement of paper PMC10567573
